For the experiment, the target named is Target 2 (canine examples 1 to 4) (canine). Description: SPR, Biacore T200; antibody captured on anti-canine coupled CM5 chip, antigen in solution, 1:1 fit. Background: Surface plasmon resonance follows binding to a sensor surface in real time, without labels.

Consider one molecule from patent US20260234262A1.

B1: 02F09R3-Fc (Fc fusion)
chain: QVQLVESGGGLVQAGGSLRLSCVASGSTFSNLVMAWYRQAPGKQREWVARISLAGNTIYADSVKGRFTISRDNAKNTVYLQMNSLKIEDTAVYYCSRGGVDWGQGTQVTVSSGPGGQVPKRENGRVPRPPDCPKCPAPEAAGGPSVFIFPPKPKDTLLIARTPEVTCVVVDLDPEDPEVQISWFVDGKQMQTAKTQPREEQFNGTYRVVSVLPIGHQDWLKGKQFTCKVNNKALPSPIERTISKARGQAHQPSVYVLPPSREELSKNTVSLTCLIKDFFPPDIDVEWQSNGQQEPESKYRTTPPQLDEDGSYFLYSKLSVDKSRWQRGDTFICYVMHEALHNHYTQESLSHSP
modifications: N-terminal pyroglutamate (PyroQ) observed by intact mass
For orientation: Kd means the constant that tells how readily two partners part at equilibrium. A lower Kd goes with tighter binding. Broadly, the koff is the rate constant with which the complex falls apart. A higher koff goes with a short-lived complex. The term kon denotes the second-order rate constant of association. Low values mean slow association, high ones fast association. B1 came in with a Kd of 213 pM, a koff of 6.24e-05 s⁻¹ and an association rate constant (kon) of 293000 M⁻¹ s⁻¹.
